From patent publication US20210388110A1 (published 2021)
Positions count from the first letter of the chain named. Blank lines part the entries; values can stand above or below the binder they belong to.

Biological target: T1, soluble human GPC3 (human, UniProt P51654 25-563, limits assumed)
T1 construct: soluble human GPC3 as analyte; also called glypican 3
Assay: SPR (Biacore), soluble human GPC3

T1 sequence (P51654 other isoform, or with tags, fused parts or gaps limits assumed, form in doubt): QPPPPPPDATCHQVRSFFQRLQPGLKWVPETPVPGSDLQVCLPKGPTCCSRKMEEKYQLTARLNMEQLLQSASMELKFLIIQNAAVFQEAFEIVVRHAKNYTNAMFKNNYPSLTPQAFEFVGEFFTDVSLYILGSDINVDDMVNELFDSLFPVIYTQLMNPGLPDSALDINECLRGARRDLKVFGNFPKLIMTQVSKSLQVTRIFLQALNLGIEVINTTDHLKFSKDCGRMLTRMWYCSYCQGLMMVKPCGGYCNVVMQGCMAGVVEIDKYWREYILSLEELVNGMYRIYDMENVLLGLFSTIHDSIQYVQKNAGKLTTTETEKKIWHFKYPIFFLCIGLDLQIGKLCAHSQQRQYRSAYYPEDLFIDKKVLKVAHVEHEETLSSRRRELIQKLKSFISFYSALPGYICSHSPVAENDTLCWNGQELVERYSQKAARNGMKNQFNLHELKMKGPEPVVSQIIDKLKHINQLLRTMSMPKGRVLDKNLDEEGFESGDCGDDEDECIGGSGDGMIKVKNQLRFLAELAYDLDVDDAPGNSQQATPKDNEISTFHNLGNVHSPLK

B1: H0610-G1dh/none-Hi-Kn010G3/L0233-k0 (antibody, human IgG1, kappa)
heavy: not shown
chain: EPKSSDKTHTCPPCPAPELLGGPSVFLFPPKPKDTLMISRTPEVTCVVVDVSHEDPEVKFNWYVDGVEVHNAKTKPREEQYNSTYRVVSVLTVLHQDWLNGKEYKCKVSNKALPAPIEKTISKAKGQPREPQVCTLPPSRDELTKNQVSLWCLVKGFYPSDIAVEWESNGQPENNYKTTPPVLDSDGSFFLYSKLTVDKSRWQQGNVFSCSVMHEALHNRYTQKSLSLSP
light: DIVMTQSPLSLPVTPGEPASISCRSSQELVHSNRNTYLHWYQQKPGQAPRLLIYKVSNRFSGVPDRFSGSGSGTDFTLKISRVEAEDVGVYYCGQGTQVPYTFGQGTKLEIKRTVAAPSVFIFPPSDEQLKSGTASVVCLLNNFYPREAKVQWKVDNALQSGNSQESVTEQDSKDSTYSLSSTLTLSKADYEKHKVYACEVTHQGLSSPVTKSFNRGEC
notes: single-arm (one Fab)
Kd: 3550 pM

B5: H0610-G1dh/none-Hi-Kn010G3/L0242-k0 (antibody, human IgG1, kappa)
heavy: not shown
chain: B1 chain
light: B1 light with Q27E, E28S, L29P, L38I, G94Y
notes: single-arm (one Fab)
Kd: 1190 pM

B6: H0610-G1dh/none-Hi-Kn010G3/L0240-k0 (antibody, human IgG1, kappa)
heavy: not shown
chain: B1 chain
light: B1 light with Q27E, E28S, L29P, G94Y
notes: single-arm (one Fab)
Kd: 848 pM

B8: H0610-G1dh/none-Hi-Kn010G3/L0237-k0 (antibody, human IgG1, kappa)
heavy: not shown
chain: B1 chain
light: B1 light with L29P, L38I, G94Y
notes: single-arm (one Fab)
Kd: 1310 pM

B10: H0610-G1dh/none-Hi-Kn010G3/L0234-k0 (antibody, human IgG1, kappa)
heavy: not shown
chain: B1 chain
light: B1 light with L29P, S61R
notes: single-arm (one Fab)
Kd: 778 pM

B11: H0610-G1dh/none-Hi-Kn010G3/L0238-k0 (antibody, human IgG1, kappa)
heavy: not shown
chain: B1 chain
light: B1 light with Q27E, E28P, L29P, G94Y
notes: single-arm (one Fab)
Kd: 637 pM

B14: H0610-G1dh/none-Hi-Kn010G3/L0243-k0 (antibody, human IgG1, kappa)
heavy: not shown
chain: B1 chain
light: B1 light with Q27E, E28P, L29P, S61R
notes: single-arm (one Fab)
Kd: 649 pM

B17: H0610-G1dh/none-Hi-Kn010G3/L0239-k0 (antibody, human IgG1, kappa)
heavy: not shown
chain: B1 chain
light: B1 light with Q27E, E28S, L29P, S61R
notes: single-arm (one Fab)
Kd: 874 pM

More lines, now with the values ahead:

Kd: 1.21 pM
B2: H0610-G1dh/none-Hi-Kn010G3/L0246-k0 (antibody, human IgG1, kappa)
heavy: not shown
chain: B1 chain
light: B1 light with E28S, L29P, L38I, H39Q, G94S
notes: single-arm (one Fab)

Kd: 564 pM
B3: H0610-G1dh/none-Hi-Kn010G3/L0263-k0 (antibody, human IgG1, kappa)
heavy: not shown
chain: B1 chain
light: B1 light with E28S, L29P, L38I, G94A
notes: single-arm (one Fab)

Kd: 55.5 pM
B4: H0610-G1dh/none-Hi-Kn010G3/L0248-k0 (antibody, human IgG1, kappa)
heavy: not shown
chain: B1 chain
light: B1 light with S25P, E28S, L29P, L38I, H39Q, G94Y
notes: single-arm (one Fab)

Kd: 219 pM
B7: H0610-G1dh/none-Hi-Kn010G3/L0264-k0 (antibody, human IgG1, kappa)
heavy: not shown
chain: B1 chain
light: B1 light with S25P, E28S, L29P, G94A
notes: single-arm (one Fab)

Kd: 10.7 pM
B9: H0610-G1dh/none-Hi-Kn010G3/L0261-k0 (antibody, human IgG1, kappa)
heavy: not shown
chain: B1 chain
light: B1 light with E28S, L29P, L38I, H39Q, G94T
notes: single-arm (one Fab)

Kd: 334 pM
B12: H0610-G1dh/none-Hi-Kn010G3/L0259-k0 (antibody, human IgG1, kappa)
heavy: not shown
chain: B1 chain
light: B1 light with E28S, L29P, L38I, G94T
notes: single-arm (one Fab)

Kd: 211 pM
B13: H0610-G1dh/none-Hi-Kn010G3/L0262-k0 (antibody, human IgG1, kappa)
heavy: not shown
chain: B1 chain
light: B1 light with E28P, L29P, G94A
notes: single-arm (one Fab)

Kd: 6.86 pM
B15: H0610-G1dh/none-Hi-Kn010G3/L0249-k0 (antibody, human IgG1, kappa)
heavy: not shown
chain: B1 chain
light: B1 light with S25P, E28S, L29P, L38I, H39Q, G94S
notes: single-arm (one Fab)

Kd: 0.352 pM
B16: H0610-G1dh/none-Hi-Kn010G3/L0258-k0 (antibody, human IgG1, kappa)
heavy: not shown
chain: B1 chain
light: B1 light with E28P, L29P, G94T
notes: single-arm (one Fab)
